{"source": "paper PMC5561266", "target": "McpB ligand-binding domain (LBD) of Ralstonia pseudosolanacearum Ps29 (Ralstonia pseudosolanacearum Ps29)", "assay": "AUC"}
{"substance": "McpB ligand-binding domain (LBD) of Ralstonia pseudosolanacearum Ps29 (domain or fragment)", "values": [{"measurement": "stoichiometry N", "result": 2}]}
